The results in this text go back to article PMC5943350.

One may read the stoichiometry N as the number of molecules, sites or subunits per partner or assembly.

In test [1] the target is human TNF-α (human) (UniProt P01375).
Test [2] deals with TNFRII-Trimer fusion protein (homotrimeric soluble human TNF receptor II fused to the Trimer-Tag, the C-propeptide of human α1(III) collagen) (human) (UniProt P20333). Put plainly: SEC + other: non-reducing SDS-PAGE; purified TNFRII-Trimer on 10% SDS-PAGE under non-reducing or reducing conditions (Coomassie; Western blot under non-reducing conditions too) and SEC-HPLC (Sepax Zenix-C SEC-300, OD280), TNFRII-Fc as dimeric control.

UniProt P01375, sequence (P01375 77-233): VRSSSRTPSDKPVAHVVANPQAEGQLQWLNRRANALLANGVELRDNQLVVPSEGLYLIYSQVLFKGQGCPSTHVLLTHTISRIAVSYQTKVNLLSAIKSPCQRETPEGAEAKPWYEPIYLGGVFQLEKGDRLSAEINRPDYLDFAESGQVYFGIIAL

In test [1], “TNFRII-Fc (dimeric soluble human TNFRII receptor-Fc fusion) (from UniProt P20333 23-257)” yielded an IC50 of neutralisation of TNF-α (2.5 ng/mL)-induced cytotoxicity in L929 cells, MTT assay, molar basis of 0.0986 nM and an IC50 of neutralisation of TNF-α (2.5 ng/mL)-induced cytotoxicity in L929 cells, MTT assay, weight basis of 0.0101 µg/mL.

Consider “TNFRII-Trimer fusion protein (homotrimeric soluble human TNF receptor II fused to the Trimer-Tag, the C-propeptide of human α1(III) collagen) (from UniProt P20333 23-256)”, for which, in test [2], the stoichiometry N was 3.
